Laboratory results as given in paper PMC5027281 (Nature Communications, 2016).
Numbering of substitutions follows the chain as printed.

B1: 3I14-mHgL IgG1 (mature heavy chain, germline light chain) (antibody, V domains shown)
VH: QVQLLESGGGVVQPGRSLRLSCAASGFTFSNYGMHWVRQAPGKGLEWVAIISFDGSKKYYANSVKGRSTISRDNSKNTLSLQMNSLGPEDTALYYCAKLPSPYYFDSRFVWVAASAFHFWGQGILVTVSS
VL: not shown
B2: 3I14 VLD94N variant IgG1 (antibody, V domains shown)
VH: B1 VH
VL: NFMLTQPPSASGTPGQRVTISCSGSSSNIGGNTVHWFQQLPGTAPKLLIYTNSLRPSGVPDRFSGSKSGTSASLAISGLQSEDEADYYCAAWDNSLNGQVFGGGTKLTVL
B3: 3I14-GL IgG1 (VH and VL germline versions) (antibody, V domains shown)
VH: QVQLVESGGGVVQPGRSLRLSCAASGFTFSSYGMHWVRQAPGKGLEWVAVISYDGSNKYYADSVKGRFTISRDNSKNTLYLQMNSLRAEDTAVYYCAKLPSPYYYDSRFVWVAASYFDYWGQGTLVTVSS
VL: not shown
B4: 3I14-gHmL IgG1 (germline heavy chain, mature light chain) (antibody, V domains shown)
VH: B3 VH
VL: B2 VL with N94D

Legend:
[1] = target: T1, Recombinant full-length HA of A/Perth/16/09 (H3-PE09) (influenza A virus A/Perth/16/09); assay: BLI; settings: both partners purified
[2] = target: T1, Recombinant full-length HA of …; assay: BLI; settings: both partners purified; remark: listed apart in the source

| Binder | Kd [1] [nM] | koff [1] [s⁻¹] | kon [1] [M⁻¹ s⁻¹] | Kd [2] [nM] | koff [2] [s⁻¹] | kon [2] [M⁻¹ s⁻¹] |
| --- | --- | --- | --- | --- | --- | --- |
| B1 | 0.658 | 0.000126 | 192000 |  |  |  |
| B2 |  |  |  | 0.308 | 5.44e-05 | 177000 |
| B3 | 4.02 | 0.000556 | 139000 |  |  |  |
| B4 | 0.733 | 0.000125 | 171000 |  |  |  |
